The target in series [1] is T1, PKB-sub peptide (GSK3 consensus peptide) CKRPRAASFAE
T1 chain: CKRPRAASFAE

Series [2] deals with PDK1 peptide (PDKtide) ….

B1: GST-SGK2 fusion protein (human SGK2 with N-terminal Glutathione S-transferase tag, expressed in Hi5 insect cells) (protein)
chain: MNSSPAGTPSPQPSRANGNINLGPSANPNAQPTDFDFLKVIGKGNYGKVLLAKRKSDGAFYAVKVLQKKSILKKKEQSHIMAERSVLLKNVRHPFLVGLRYSFQTPEKLYFVLDYVNGGELFFHLQRERRFLEPRARFYAAEVASAIGYLHSLNIIYRDLKPENILLDCQGHVVLTDFGLCKEGVEPEDTTSTFCGTPEYLAPEVLRKEPYDRAVDWWCLGAVLYEMLHGLPPFYSQDVSQMYENILHQPLQIPGGRTVAACDLLQSLLHKDQRQRLGSKADFLEIKNHVFFSPINWDDLYHKRLTPPFNPNVTGPADLKHFDPEFTQEAVSKSIGCTPDTVASSSGASSAFLGFSYAPEDDDILDC
For B1, in series [1], the “in vitro kinase assay, 32P incorporation into peptide (purified SGK2)” value is on record as “PKB-sub had significant incorporation of ^32P” and the “in vitro kinase assay, PDK1-activated versus non-activated SGK2” value is reported as “the PDK1 activated SGK2 had significantly higher kinase activity compared to non-activated SGK2”. Moreover, the “in vitro kinase assay, 32P incorporation into peptide (purified SGK2)” value in series [2] is “addition of same amount of control peptide (PDK1 peptide) had no significant incorporation”.

Source of the values: US20020123056.
